Source: the nanobody polyreactivity screen of Harvey et al. (2022)

Test: yeast display, Sf9 membrane polyspecificity reagent, FACS + sequencing; frameworks hold sequencing errors
Summary of the method: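 Using colony PCR, genes from sorted yeast display clones were amplified, then sequenced on MiSeq at 2 × 250 and filtered by CDR length. The clones had been stained with 10% biotinylated, detergent-solubilized Sf9 membrane reagent for 1 hour at 4 °C and sorted by FACS into low and high (top ~1%) gates on anti-HA and streptavidin fluorescence. Polyreactivity labels come from the gate of origin.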

| Sequence | polyreactivity (PSR sort gate) |
| --- | --- |
| QVQLVESGGGLDQAGGSLRLSCAASGSIFEKYAMGWYRQAPGKERELVAGISRSGGSTYYADSVKGRFTISRDNAKNTVYLQMNSLKLEDTAFYFCAARYTRYGSFYGFGYWGQGTQVTVSS | high polyreactivity |
| QVQLVESGGGLVQAGGSLRLTCAASGRTFVNYAMGWYRQAPGKERELVAAISTSGGSTYYADSVKGRFTISRDNAKNTVYLQMNSLKPEDTAVYYCNKVRYLPDNLRQVTFDYWGQGTQVTVSS | low polyreactivity |
| QVQLVESGVGLVQAGGSLRLSCAASGRIISRYAMGWYRQAPGKERELDAAISRRGGSTYYADSVKGRFTISRDNAKNTVYLQMNSLKPEDTAVYYCNADTGNRGYDYWGQGTQVTVSS | high polyreactivity |
| QVQLVESGGGLVQARGSLRLSCPASGSIFSLNAMGWYRQAPGKERELVASISRGGSTNYADSVKGRFTISRDNAKNTVYLQMNSLKPEDTAVYYCAAYWYYYTKSQSSYRFDYWGQGTQVTVSS | low polyreactivity |
| QVQLVESWGGLVQAGGSLRLSCAASGRTLGRNAMGWYRQAPGKEREWVASISSGGSTNYADSVKGRFTISRDNAKNTVYLQMNSLKPEDTAVYYCNKRYRSLYSSGYDYWGQGTQVTVSS | high polyreactivity |
| QVQLVESGGGLVQAGGSLRLSCAACGSTFFPYAMGWYRQAPGKERELVAAITSGGRTKYADSVKGRFTISRDNAKNTVYLQMNSLKPEDTAVYYCAARGLIKEYGGPYRRFGYWGQGTQVTVSS | high polyreactivity |
| QVQLVESGGGLVQAGGSLRLSCAASGYILRNAMGWYRQAPGKERELVAAIRFRGGSTSYADSVKGRFTISRYNAKNTVYLQMKSLKPEDTAVYYCNALWWVIRPYQRHDYWGQVTQVTVSS | low polyreactivity |
| QVQLVESGGGLVQAGGSLRLSCAASGFTFGPYAMGWSRQAPGKEREFVAAITSSGGSTYYADSVKGRFTISRDNAKNTVYLQMNSLKPEDTAVYYCNARSRGYVGKTPRRYYYWGQGTQVTVSS | high polyreactivity |
| QVQLVESGGGLVQAGGSLRLSCAASGNTFYRYAMGWYRQAPGKERELVAAISWSGSSTYYADSVKGRFTISRDNAKNTVYLQMNSLKPEDTAVYYCAVYYTRIGPRYDYWGQGTQVTVSS | high polyreactivity |
| QVQLVESGGGLVQAGGSLRLSCAASGLIFHYYAMGWYRQAPGKERELVAAISSGGSTNYADSVKGRFTISRDNAKNTVYLQMNSLKPLDTAVYYCAARSGARRGNVYVYYEYYYWGQGTQVTVSS | low polyreactivity |
| QVQLLESGGGLVQAGGSLRLSCAASGSTFTKYDMGWYRQAPGKERELVAAIRSGGDTNYADSVKGRFTISLDNAKNTVYLQMNSLNPEDTAVYYLAAARGPTNHTSYPWYEYDYWGQCTQVTVSS | low polyreactivity |
| QVQLVESGGGLVQAGGSLRLSCAASGSIFRPNAMGWYRQAPGKERELVAAITWSGDSTYYADSVKGRFTISRDNAKNTVYLQMNSLKPEDTAVYYCAKYSLVFYISLYGYWGQGTQVTVSS | low polyreactivity |
| QVQLVESGGGLVQAGGSLRLSCAASGSIFAGYAMGWYRPAPGKERELVAAINWTGDSTYYADSVKGRFTISRDNAKNTVYLQMNSLKPEDTAVYYCAAIRRQKGLWDYYYWGQGTQVTVSS | low polyreactivity |
| QLQLVESGGGLVQAGGSLRLSCAASGSIFRWYTMGWYRQAPGKERELVAAISSGGSTNYADSVKGRFTISRDNAKNTVYLQMNSLKPEDTAVYYCAARAIYKSKYDYWGQGTQVTVSS | high polyreactivity |
| QVQLVESGGGLVQAGGSLRLSCAASGITFYWYAMGWYRQAPGKERELVAAITRSVGSTYYADSVKGRFSISRDNAKNPVYLQMNSLKPEDTAVYYCAADFYYYGFDYWGQGTQVTVSS | low polyreactivity |
| QVQLVESGGGLVQAGGSLRLSCAASGFIIVYYAMGWYRQAPGKERELVAGISSGGSTYYADSVKGRFTISRDNAKNTVYLQMNSLKPEDTAVYYCATRYLYRGYSYFAYDYWGQGTQVTVSS | low polyreactivity |
| QVQLVETGGGLVQAGGSLRLSCAASGFTFWYNDMGWYRQPPGKEREFVAAINSGGSTNDADSVKGRFTISRDNAKNTVYLQMNSLKPEDTAVYYCNADWFTPAQPWYRYFIRYDYWGQGTQVTVSS | low polyreactivity |
| QVQLVESGGGLVQAGGSLRLSCAASGRTFYRNAMGWYRQAPGKERELVARISRNGGTTYYADSVKGRFTISRDNAKNTVYLQMNSLKPEDTAVYYCAAPIYDGARGDYWGQGTQVTVSS | high polyreactivity |
| QVQLVESGGGLVQAGGSLRLSCADSGSIFDQYTMGWYRQAPGKERELVAGISSGGITNYADSVKGRFTISRDNAKNTVYLQMNSLKPEDTAVYYCAADNWYLAEYDYWGQGTQVTVSS | low polyreactivity |
| QVQHVESGGGLVQAGGSLRLSCAASGRTFPGNAMGWYRQAPGKERELVAAISSSGGSTHYADSVKGRFTFSRDNAKNTVYLQMNSRKPEDSAVYYCNARSKGYSYRYYYWGQGTQVTVSS | high polyreactivity |
| QVQVVQSGGGLVQAGGSLRLSCAASGSIFVPNSMGWYRPPPGKERELVAAISLSGGSTYYADSVKGRFTISRDYARNTVYLQMTSLKPEDSAVYYCAADIFYYSSSYGYWGLGTQVTVSS | low polyreactivity |
| QVQLVESGGGLVQAGGSLRLSCAASGSTIWYYVMGWYRAAPGKERELVAAIRSNDGSTYYADSVKGRFTISRDNAKNTDYLQLNRLKPEDTAVYYCAADDWVYAQEYDYWGQGTQVTVSS | low polyreactivity |

| Sequence | polyreactivity (PSR sort gate) |
| --- | --- |
| QVQLVASGGGLVQAGGTLRLSCAASGRIFGRYGMGWYSQAPGKERELVAAISRSGDRTYYADSVKGRFTISRDNAKNTVYLPMNSLKPEDTAVYYCAAYSYRYDYWGQGTQVTVAS | high polyreactivity |
| QVQLVESVGGLVQAGGSLRLSCAASAFNFDYNAMGWYRQAPGKERELVAVISSSGSRTYYADSVKGRFTISRDNAKNTVYLQMNSLKPEDTAVYYCAAARIGTLDYWGQGTQVTVSS | high polyreactivity |
| QVQLVESGGGLVQAGGSLRLSCAASGSTFPKYAMGWYRQAPGKERELVASISVTTGSTYYADSVKGRFTISRDNAKNTVYLQMNSLKPEDTAVYYCAVGRTVAHRFIAGDYWGQGTQVTVSS | high polyreactivity |
| QVQLVASGGGLLQAGGSLRLSCAASGRILRVYAMGWYRPAPGKESELVAAITWRGGSTYYADSVKGRFTISRDNAKNTVYLQMNSLKPEDTAVYYCAAEAYSYGYSALLYDYWGQGTQVTVSS | high polyreactivity |
| QGQLVESGGGLVQAGGRLRLSCAASGFTFRHNAMGWYRQAPGKETELVAAISWSDGSTYADSVKGRFTISRDNAKNTVYLQMNSLKPEDTAVYYCNADYPSYRYFTGRDYWGQGTQVTVSS | low polyreactivity |
| RFQLVESGGGLVQAGGSLRLSCAASGFTFRDYSMGGYRQAPGKERELVATISWGGASTSYADSVKGRFTISRDNAKNTVYLQMNSLKPEDTAVYYCNVRAQRRHGGYDHWGQGTLVTVSS | low polyreactivity |
| QVQLVESGGGLVQAGGSLRLSCAASGRIFGPYTMGWYRQAPGKERELVAAISSTGGSTYYADSVKGRFTISRDNAKNTVYLQRNSLKPEDTAVYYCEYDYWGQGTQVTVSS | low polyreactivity |
| QGQLVESGGGLFQAGASLRLSCAASGITFYDNAMGLYRQAPGKERELVAGISYDGDSTYADSVKGRFTISRDNAKNTVYLQMNSLKPEDTAVYYCAALCPYDWLWAGDYWGQGTQVTVSS | low polyreactivity |
| QVQLVESGGGLVQAGGSLRLSCAASGSTFGFNVMGWYRQAPGKERELVAVITSDGNTYYADSVKGRFTISRDNAKNTVYFQMNSLIPEDTAVYYCAVSELGTPYGYWGQGTQVTVSS | low polyreactivity |
| QVQLVETGGGLVQAGGSLRLSCAASGSTFYAYVMGWYRQAPGKERELVAAITSAGSTYYADSVKGRFTISLDNAKNTVYLQMNSLKPEDTAVYYCAADAYTESAYYKYDYWGQGTQVTVSS | low polyreactivity |
| QVQHVESGAGLVQAGGSLRLSCAASGRTFYYYAMGWYRQAPGKERELVAAISTNGGSTSYADSVKGRFTISRDNAKNTVYLQMNSLKPEDSAVYYSAAYYRTPTDVEYDYWGQGTQVTVSS | high polyreactivity |
| QVQLVESGGGLVQAGGSLRLSCAASGRTFSRNAMGWYRQAPGNERELLAASSWSGGRTYYADSVKGRFTISRDNAKNTFYLQMNSLKPEDTAVYYCAAGGGTGGSRYDSWGQGTQVTVSS | high polyreactivity |
| QVQLEESGGGLVQAGGSLRLSCAASGLTLGRYAMGWYRQAPGKERELVAVITGGGSTNYADSVKGRFTISRDNAKNTVYLQMNSLKPEDTAVYSCAVRGGIFQTLSTWYRYYYWGQGTQVTVSS | high polyreactivity |
| QVQLVESAGGLVQAGGSLRLSCDASGSTIDEYDMGWYRQAPGKERELVAAISDRGSRTRYADSVKGRFTISRDNAKNTVYLQLNSLKPEDTAVDYCNADIYVNYWDFDYWGQGTQVTVSS | high polyreactivity |
| QVQIVESGGGLVQAGGSLRLSCAASGITFGPYAMGWYRQAPWKERELVAAISYSGGNTYYADSVKGRFTISRDNAKNTVYLQMNSLKPEDTAVDYCARVQSLKYNYWGQGTQVTVSS | high polyreactivity |
| QVQLVESGGGLVQAGGSLRLICAASGGIFYVNAMGWYRQAPGKERELVADIRYSGTSTYYADSVKGRFTISRDNAKNTVYLQMNSLKPEDTAVYYCAVDAWDTTLVYEQGAERDSWGQGTQVTVSS | low polyreactivity |
| QVQLVESGGGLDQAGGSLRLSCAASGGTFYYYAMGWYRQPPGKERELVAAITKNGGSTYYADSVKGRFTNSRDNAKNTVYLQMNRLKPEDTAVYSCAKATVAYGWWRYNYWGQGTQVTVSS | high polyreactivity |
| QVQLVESGGGLVQAGGSLRLSCAASGSTIFFNAMGWYRQAPGKERELVAGISSSGGSTHYADSVKGRFTISRDNAKNTVYLQMNSLKPEDTAVYYCNAQQYLPSEGDYWGQGTQVTVSS | low polyreactivity |
| QVQLVESGGGLVQAGGSLRLTCAASGSTFPSYAMGWYRQAPGKERELVAAINSGGGTNYADSVKGRFTISRDNAKNTVYLHMNSLKPEDTAVYYCAKSRYDYTKTEGGYWGQGSQVTVSS | low polyreactivity |
| QDQLVESGGGLVQAGGSLRLSIAASVRIFYANAMGWYRQAPGQERELVAAISSGGSTYYADSVKGRFTISRDNAKNTVYLQMNSLKPEDTAVFYCAVYTHKKVRPEYDYWGQGTQVTVSS | low polyreactivity |
| QVKLVESGGGLVQAGGSLRLSCAASGSTFYAYVMGWYRQAPGKARELVAAISKGGGSTYYADSVKGRFTISRDNAKNTVYLQMNSLKPEDTAVYYSAAYASYSNYRKYNYWGQGTQVTVSS | high polyreactivity |
